# Assay results taken from publication PMC4827828, “Cupincin: A Unique Protease Purified from Rice (Oryza sativa L.) Bran Is a New Member of the Cupin Superfamily” (PLoS ONE, 2016).
# Molecular target: the molecule itself
# Experiment: SEC; analytical gel filtration on Progel-TSK W-3047 (HPLC), 0.1 M sodium phosphate buffer pH 7.0, 1 mL/min; calibrated with standards of 6.5-160 kDa; apparent mass 135.33 ± 3.5 kDa against 48.5 kDa from the sequence
protein,measurement,value
"Cupincin (hypothetical protein OsI_13867) (enzyme, UniProt B8AL97 35-470, looked up, Cupincin, hypothetical protein OsI_13867 of Oryza sativa L., 436 residues and 48492.94 Da in the database entry; The native protein runs in SDS-PAGE as three polypeptides (about 34.5, 26.9 and 15.9 kDa) that all match OsI_13867; also called purified protease from rice bran; source: purified from rice bran (variety IR-64): ammonium sulphate fractionation (40-80%), Sephadex G-150) SRRGEREEEDERRRHGGEGGRPYHFGEESFRHWTRTRHGRFSVLERFPDEQVVGAAVGGYRVAVLEAAPRAFLQPSHYDADEVFYVKEGEGVIVLLREGRKESFCVREGDAMVIPAGAIVYSANTHSSKWFRVVMLLNPVSTPGHFEEYFPVGGDRPESFFSAFSDDVLQAAFNTRREELEKVFERQREGGEITTAPEEQIRELSKSCSRGGGGGSGSEWEIKPSSLTGKSPYFSNNHGKLFELTGDECRHLKKLDLQIGLANITRGSMIAPNYNTRATKLAVVLQGSGYFEMACPHVSGGGSSERREREREHGRRREEEQGEEEHGERGEKARRYHKVRAQVREGSVIVIPASHPATIVASEGESLAVVCFFVGANHDEKVFLAGRNSPLRQLDDPAKKLVFGGSAAREADRVLAAQPEQILLRGPHGRGSVSDM",stoichiometry N,3
